Results from article PMC5127057.

How the values were obtained:
[1] = target: Human Neutrophil Elastase (human) (UniProt P08246); assay: stoichiometry of inhibition by titration of residual protease activity; 200 nM HNE or 300 nM PR3 mixed with varied Siropin, molar ratios from 0 to 10, 5 min at 37 °C, then substrate, absorbance at 405 nm for 30 min; x-intercept of linear regression; 20 mM Tris-HCl, 500 mM NaCl, pH 8.0
[2] = target: Human Proteinase 3 (human) (UniProt P24158); assay: as above
[3] = target: Human Neutrophil Elastase (human) (UniProt P08246); assay: progress curve kinetics of protease inhibition; pseudo-first-order conditions, Siropin 1 to tenfold over protease, 200 µM substrate, HNE (200 nM) or PR3 (300 nM), 37 °C, 405 nm for 20 min; k obs against Siropin concentration, slope k'app corrected for substrate competition (Km 114 µM HNE, 270 µM PR3)
[4] = target: Human Proteinase 3 (human) (UniProt P24158); assay: as above

Chain of UniProt P24158 (P24158 28-248): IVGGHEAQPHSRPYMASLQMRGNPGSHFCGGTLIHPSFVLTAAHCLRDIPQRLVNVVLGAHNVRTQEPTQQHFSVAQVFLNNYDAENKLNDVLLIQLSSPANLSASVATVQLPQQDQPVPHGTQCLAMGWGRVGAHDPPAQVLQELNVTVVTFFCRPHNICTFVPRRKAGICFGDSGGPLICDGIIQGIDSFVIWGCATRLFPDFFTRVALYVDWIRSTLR
Chain of UniProt P08246 (P08246 30-267): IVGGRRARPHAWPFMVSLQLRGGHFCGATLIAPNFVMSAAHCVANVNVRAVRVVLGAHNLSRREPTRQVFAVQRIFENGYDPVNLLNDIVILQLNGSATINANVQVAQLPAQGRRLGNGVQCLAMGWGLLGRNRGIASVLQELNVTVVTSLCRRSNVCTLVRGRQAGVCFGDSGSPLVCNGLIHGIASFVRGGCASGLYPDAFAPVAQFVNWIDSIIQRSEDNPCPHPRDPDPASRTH

A stoichiometry of inhibition (SI) [1] of 1.76, a stoichiometry of inhibition (SI) [2] of 1.1 and a kon [3] of 84000 M⁻¹ s⁻¹ were found for Siropin 1 (natural protein) in this work. The kon [4] was 260000 M⁻¹ s⁻¹.
A stoichiometry of inhibition (SI) [1] of 1.82, a stoichiometry of inhibition (SI) [2] of 1.1 and a kon [3] of 77000 M⁻¹ s⁻¹ were found for Siropin 2 (natural protein) in this work. It also gave a kon [4] of 110000 M⁻¹ s⁻¹.
